assay: soluble on expression in E. coli; label from the status in PepcDB or PDB records

| Sequence | soluble on expression in E. coli |
| --- | --- |
| TSPLYTGAVPRANRIVQQLVEAGADLANIRTMFRNMLRGEEMILSRAEQNVFLQHFPDMLPCGIDRNSELAIALREALRRADSQQAARAPARTPPRSSVRTPERSPAPRTATESSSGSNQRSLLGRFAGLMTSNQRRPSSASNASTSQRPVDRNPPRINLMPTGANRVAMRNRGNNEADAALQALAQNGINMEDLRAALEAYIVWLRPIPLDIANALEGVGITPRFDNPEEAKVDNPLMNLSSALKRRLDA | not soluble |
| TSSDTQNNKTLAAMKNFAEQYAKRTDTYFCSDLSVTAVVIEGLARHKEELGSPLCPCRHYEDKEAEVKNTFWNCPCVPMRERKECHCMLFLTPDNDFAGDAQDIPMETLEEVKASMA | soluble |
| TVVEEDTGGNTDLEAVRRTLLAQFEQYAKLNKKIPAEIIGSINGIAENSRLTDTVAAHLQLKLAQRQQILEIPEIGKRMEFLLAQLESELDIMQAEKRIRGRVKRQMEKSQREYYLNEQIKAIHKELGEEDENGELDALEADIKKAGMTKEAEEKCLSELKKLKMMPPMSAESTVVRNYIDTLLELPWKKKSRVSKDIAKAGLVLDADHYGLEKVKERILEYLAVQKRMDKLKGPILCLVGPPGVGKTSLGESIAKATGRKYVRMALGGVRDESEIRGHRRTYIGSMPGKILQNMAKAGVKNPLFLLDEIDKLGNDFRGDPASALLEVLDPEQNNKFADHYAEVDYDLSDVMFIATSNSLNIPTPLLDRMEIIRL | not soluble |
| VAKMRFIDIGANLLDEMYTGQYNDKPYHPPDLSAVLERAWAAGLEKLMITAGSLKEARAALELAKTDERLYCTVGCHPTRCKEFEDHPGGPEAYLQELLEVLKEGQALGKVVAVGECGLVATDYERLHFCDADTQKKYFEAQFRLAKESGLPMFLHLRAAADDFLDITGRHLGDFPRGGVVHSFDGTAEEAARVLAVPQLAIGINGCSLKTDDNLAVVGGLPLERIMLETDCPWCEIRPTHAGRKHVSAEALAGVTGAKDRKKFMPGCQVKSRNEPANIRQVLEVVAGVKGRTDLEAVADVIFGNTERMFFPTA | not soluble |
| VALSPLPLPEGLELTGIEGTLWQGQAAQVRWQGMSLGDLNWDLHLSALLLGQLEADIRFGRGSSTQLRGKGVVGVGLSGPYADDFLLSLPAAQAITWLPLPVPLMAQGQLEMAVKQYRFGEPYCQQAEGSLAWSAAQLESPIGALQLGTVVSDFTCQESVVTLKGGQKTAQVSSEFNLSLQPDNRYQAQAWFKPEAEFPESLKEQLSWLPQPDGQGRYPFNQQGQL | not soluble |
| VAYLTEVVVNEVVEAHEVPEVQHALNINSSESLIHIVRTRRLNQHVKIVDEDYFLKSIVSDIGNDVASDSIYDYLEKVLNLNISYSSKSITFEPFDEQAYQLFGDVSVAYSATVRSIVYLENTMPFQYNISKHLA | not soluble |
| VEKVFVVGHKNLDMDALGATVGMAHFASQIVRKSYAVYDDMAMNTDIERAVERLKEDGQSPLITLSEAEELVNQHSLLIMVDHSKINLTLSQDFYDRFNEVIVVDHHRRDDDFPENAVLTFIESGASSACELVTELLQFQGAPERLSKIQASILMAGIMLDTKNFSTRVTSRTFDVASYLRSLGSDSGEIQMISATDF | not soluble |
| VGLGNLKTYGGLRQGSQSYNIDRLKKYLYYGDGTYDDLVNTLLNEAMNDQLESFASFYRGKKLYELPRGWPEIPAKRQR | not soluble |
| VGPGMPFANRVVNRFGQVGLVPCSIGGTKLSQWQKGEFLYEETVKRAKAAMASGGGGSYRAVLWYQGESDTVDMVDASVYKKRLVKFFSDLRNDLQHPNLPIIQVRCLNT | soluble |
| VHFHPFGNVNFYEMDWSLKGDLWAHDPVIAKEGSRWYVFHTGSGIQIKTSEDGVHWENMGWVFPSLPDWYKQYVPEKDEDHLWAPDICFYNGIYYLYYSVSTFGKNTSVIGLATNQTLDPRDPDYEWKDMGPVIHSTASDNYNAIAPNVVFDQEGQPWLSFGSFWSGIQLIQLDTETMKPAAQAELLTIASRGEEPNAIEAPFIVCRNGYYYLFVSFDFCCRGIESTYKIAVGRSKDITGPYVDKNGVSMMQGGGTILDEGNDRWIGPGHCAVYFSGVSAILVNHAYDALKNGEPTLQIRPLYWDDEGWPYLSV | soluble |
| VIDSMTSTDLLPEEPKWVPLSSESIQQYVDEGKVVFVDVTADWCVTCKANKIGVLLQEPVYSELNSANVVPMQGDWTVPSEKITSYLQEHGRFGVPFNVVYGPSAPNGIELPVILNEKVVMDAIKKAGNK | soluble |
| VINARLGKKDEINVCKLKISAWDEEEAVCIMSISEERMFILKMLEEGKITSEEAARLLEAIDPDKGTADSGSGFKAQQRKTNFADEVSKVRDKLNEWKKEFKKNYNQKDFERAVDEFSSKVEKLGKNLAYTTIGVADKLVDFISSFVETNSFNVFGKYKATNRVFEVPDVNEDMELNIEAINGHILVKKHMENKVIIRTTVKSPADNADEILDFSREENKVTLKCNKIGNISVSHEIFLPSVKVKNISLVTKNGKVYVEDSISENFEAVTSNSNVDLMGVNGDKINVSNKNGRINFGYIIGKDINIDAVNSVIEIRQIKTTNINASTRNGRIFIENVHNHNDDPNINMNLKTSSADIKVNMNDMEKRGYKIKAQTTHAEINLLIPEMTYRNISKQMSSNFVEADSDGYDDYINKVNIVAETTNGNIEIVK | not soluble |
| VKNILLLDSEGKRVAVKYYSDDWPTNAAKLSFEKYVFSKTSKTNARTEAEITLLDSNIIVYKFAQDLHFFVTGGENENELILASVLQGFFDAVALLLRSNVEKMEALENLDLIFLCLDEMVDQGVVL | not soluble |
| VKTILFFILIFNSQYMSKRIGVAVVGLGSIGKTHVKALKDLEKETEFVKLVAVVDQIKAIAEKIGSEYGTPYYTTIDEVLRNSEVDVISIATPSYLHAPQAILAIEYGKHVIVEKPMATTLAGAREMVSRAERNEVKLGVIFQERYAPDIRRLKNDILKELGRIYLIESELKWYRDMKGYYKRDEIARSWRGMWNTEGGGVMTNQGIHTIDLMIWLNGEVEEVSGFVDNLTHDGIEVEDTAVAIMRYKNGALGTISQTVSMKPTTYQYRKIRVNGSNGFVEITDGSLSTVAIEGKIEESKSSVEYKKETIAQPGNLHKELLRDFLRALSEDNDFPINGKEGMKSLEVIKAVYLSSVNRQVVKLPLDVRIVV | soluble |
| VLQLAEQIDVVIFDLNGTLTTGVPVVKEYAVLNDADLSSEHFLSICNVLEGQSKHPFGKAIQSFTQGINKQKFNIANLDHSNHSGISAEINGIQYTIGSKTLMQEIGISTSSLENQMNLVAGDSLVFLARNKQLLGYLVITDPLRKDAKQTVDALIKMGKEVHLCTGADEKTAYRYAQALGIKKVHANCVATTINTEDRSKPVYIKSLQNQGLKVAMIGDAANDANALAASDFGIAVLSQDSDEITQQHASAIIQSGTILPIANAFAISKQTVNNINQNLLISLGYNLTTV | not soluble |
| VNAYDVLKRHHTVLKGLGRKVGEAPVNSEERHVLFDEMLIELDIHFRIEDDLYYPALSAAGKPITGTHAEHRQVVDQLATLLRTPQRAPGYEEEWNVFRTVLEAHADVEERDMIPAPTPVHITDAELEELGDKMAARIEQLRGSPLYTLRTKGKADLLKAI | not soluble |
| VPDKSPDLLFELLNDFFTQLLSAGESESMDNLIELDLTFSQVRMLFALVQHGEPLPINEVAERLRLSVAAAGRNVDQLVKLGLVVRREDERDRRVKRVSLSEAGHKVATQHIECKRDQLRRFAWRVPEIERTRLIEALQPILAGESLRELNQEILG | not soluble |
| VPKLVDHDERRRSITAAAWRLIAARGIEAANMRDIATEAGYTNGALSHYFAGKDEILRTSYEHISEATDRRIAEALGDATGLDALRILCREVMPINEEQLLEARIAASLWPRAMYDEQMAATNRRTMDNWREQMAIFLEQAREEGSVGDIDVTIVVEQLLNMMMGMQILGVLTPGETSSERQLEMLEQFVAAL | soluble |
| VQLQQSGTELMKPGRSLKISCKTTGYIFSNYWIEWVKQRPGHGLEWIGKILPGGGSNTYNDKFKGKATFTADTSSNIAYMQLSSLTSEDSAVYYCARGEDYYAYWYVLDYWGQGTTVTVSSGGGGSDIELTQSPLSLPVSLGDQASISCRSSQSLVHSNGNTSLHWYLKKPGQSPKLLIYKVSTRFSGVPDRFSGSGSGTDFTLKISRVEAEDLGVYFCSQSTHVPFTFGSGTKLELK | soluble |
| VQLVRLLEEKIKSLQIEIENLRKELNYYKAEMEKMLSPPLIEAVVLDVLPDGRVLVRSSSGPNLVVNIASHIDQKLIKPGISVALNQRGSTILEVLPQKEDPIVKTMEIIERPN | not soluble |
| VQVLRLGSVGPDVKLAQSLLNKIGYPVGAVDGIYGTRTRQAVIAFQRNNGLVADGIVGPATWSVFEQFLRGYAIYYVRPGDTLYNIAGRFYTSVNSIVTANPGINPNVINIGQRLVVPYGIDVVFTDIDYTYEIMERDIQGLKARYPFLETGVAGTSVLGRNLYYLRLGTGPRQVFYNAAHHAIEWITTVLLMKFAENFLKAYSTGSRIRGYNVREIWNQSSIYIVPMVNPDGVDLVLNGLSPTNPYYADLLRWNTTGRPFSQVWSANIRGVDLNRNYPASWEEAKAQEEALGIFGPGPTRYGGPYPLSEPESSAMVSFTRTHDFRLALAYHSQGRVIYWNYLNLAPPESLTIANAFARVSGYIVLDVPYEAAYAGYKDWFIQEYRRPGFTIEVGLGQNPLPISQFNTIYNDNEEILLLASLI | not soluble |
| VSGTRPAARRTNLTAAQNVVRSVDAEERIAWVSKALCRTTDPDELFVRGAAQRKAAVICRHCPVMQECAADALDNKVEFGVWGGMTERQRRALLKQHPEVVSWSDYLEKRKRRTGTAG | soluble |
| VSIKKSSGLNFDNTAIAINAGKGLEFDTNTSESPDINPIKTKIGSGIDYNENGAMITKLGAGLSFDNSGAITIGNKNDDKGSGYIPEAPRDGQAYVRKDGEWVLLSTFL | soluble |
| VSQLLPSDFNLRYPANSTSIVPISDLSITQIEADPNDSTIAVLTIQVIIRVNSFNNSLNFGIATYTQKIPGFLNQDSGRIALGFRDLALNANDLIIFNGIKGDTGVDAAIQSGKDNFTINSPIGFENIIFSIQDFDSTSTNASRGELGFVIKGEFNGQILLSSTINQKIVVSEFLAENLAILNAATEFGVILKPEFNLNSNRPTASQASKDNFSINFSQAPDPR | soluble |
| VSRAESNRTYSGQPVAERRVARRARFLDSALSVFAEKTYAHSSISDICAHAGLSRRQFYEEFGSREDILLALYDTIQDEARDAVLAANDRAPSRDPRTVAGTVMTAYIESVGTDERRARIIFVEVVGAGPRVEQYRLERRTQWAQLFETVTRTIDGGIVDPPERFEMVSIAFIGAVNDLAHHWSTASPRPSPSVLVDVLSTMLIALVTDQT | not soluble |
| VTPYEDLLRFVLETGTPKSDRTGTGTRSLFGQQMRYDLSAGFPLLTTKKVHFKSVAYELLWFLRGDSNIGWLHEHGVTIWDEWASDTGELGPIYGVQWRSWPAPSGEHIDQISAALDLLRTDPDSRRIIVSAWNVGEIERMALPPCHAFFQFYVADGRLSCQLYQRSADLFLGVPFNIASYALLTHMMAAQAGLSVGEFIWTGGDCHIYDNHVEQVRLQLSREPRPYPKLLLADRDSIFEYTYEDIVVKNYDPHPAIKAPVAV | not soluble |
| VVFVTVGTTSFDALVKAVVSQNVKDELQKRGFTHLLIQMGRGIFFPTKCDGADGSLVVDYFTFSSSIADYIRSASLVISHAGSGSIFETLKLGKPLIVVVNEDLMDNHQCELAEALEERKHLYYTRPHSLHQTLTKMELGSLVQYTPGDGTPVARIIDRFLGFPDD | not soluble |
